Assay results: patent publication US20250376538A1
Changes are numbered by the printed parent chain.

Experiments:
[1] = target: plasma-derived coagulation Factor IXa (human) (UniProt P00740); test: FXa generation assay; FIXa stimulation by the one-armed antibody at eight concentrations, fitted with the quadratic binding equation
[2] = target: plasma-derived coagulation Factor IXa (human) (UniProt P00740); test: cell-based or functional assay

Sequence of UniProt P00740 (P00740 47-191, chain 1 of 2): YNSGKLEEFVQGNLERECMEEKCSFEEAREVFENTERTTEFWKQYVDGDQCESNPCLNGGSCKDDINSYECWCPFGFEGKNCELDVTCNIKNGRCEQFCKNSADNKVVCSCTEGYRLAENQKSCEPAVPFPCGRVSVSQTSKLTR
Sequence of UniProt P00740 (P00740 227-461, chain 2 of 2): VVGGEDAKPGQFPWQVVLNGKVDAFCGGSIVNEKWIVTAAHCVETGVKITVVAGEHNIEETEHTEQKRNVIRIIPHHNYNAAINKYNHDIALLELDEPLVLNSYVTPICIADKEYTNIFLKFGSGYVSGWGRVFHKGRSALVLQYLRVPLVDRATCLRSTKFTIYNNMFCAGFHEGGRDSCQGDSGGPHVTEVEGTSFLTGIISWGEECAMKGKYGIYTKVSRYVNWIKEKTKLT

monovalent one-armed (OA) version of the anti-FIXa antibody of emicizumab (ACE910)
Kd [1]: 1100 nM | Stimulation Index (FXa generation assay; estimated at full FIXa saturation) [2]: 1370 fold

B1: monovalent one-armed (OA) antibody of anti-FIX(a) mAb1 (antibody, V domains shown, part only)
VH: EVQLVESGGGLVQPGRSLRLSCAASGFTFHDYAMHWVRQVPGKGLEWVSGISWRGDIGGYVKSVKGRFTISRDNAKNSLYLQMNSLRAEDTALYYCVKSYGSGSFYNAFDSWGQGTLVTVSS
VL: DIQMTQSPSTLSASVGDRVTITCRASQSISSWLAWYQQKPGKAPKFLIYKGSKADRGTPSRFSGSGSGTEFTLTISSLQPDDFATYYCLEYESYIRTFGQGTKVEIK
modifications: constant regions and truncated heavy chain not given
Stimulation Index (FXa generation assay; 1599 nM OA antibody) [2]: 9840 fold

B2: monovalent one-armed (OA) antibody of anti-FIX(a) mAb6 (antibody, V domains shown, part only)
VH: B1 VH
VL: B1 VL with R18E, A54L, E92S
modifications: constant regions and truncated heavy chain not given
Stimulation Index (FXa generation assay; 3547 nM OA antibody) [2]: 13500 fold

B3: monovalent one-armed (OA) antibody of anti-FIX(a) mAb3 (antibody, V domains shown, part only)
VH: B1 VH
VL: B1 VL with A54T
modifications: constant regions and truncated heavy chain not given
Stimulation Index (FXa generation assay; 749 nM OA antibody) [2]: 8650 fold

B4: monovalent one-armed (OA) antibody of anti-FIX(a) mAb2 (antibody, V domains shown, part only)
VH: B1 VH
VL: B1 VL with A54Q, E92S
modifications: constant regions and truncated heavy chain not given
Stimulation Index (FXa generation assay; 5640 nM OA antibody) [2]: 14200 fold

B5: monovalent one-armed (OA) antibody of anti-FIX(a) mAb5 (antibody, V domains shown, part only)
VH: B1 VH
VL: B1 VL with R18E, S52E, A54L, E92S
modifications: constant regions and truncated heavy chain not given
Stimulation Index (FXa generation assay; 1463 nM OA antibody) [2]: 11200 fold

B6: monovalent one-armed (OA) antibody of anti-FIX(a) mAb4 (antibody, V domains shown, part only)
VH: B1 VH
VL: B1 VL with G51S, S52E, A54L
modifications: constant regions and truncated heavy chain not given
Stimulation Index (FXa generation assay; 1217 nM OA antibody) [2]: 10500 fold

B7: monovalent one-armed (OA) antibody of anti-FIX(a) mAb8 (antibody, V domains shown, part only)
VH: B1 VH
VL: B1 VL with G51A, S52E, A54L
modifications: constant regions and truncated heavy chain not given
Stimulation Index (FXa generation assay; 1276 nM OA antibody) [2]: 10100 fold

B8: monovalent one-armed (OA) antibody of anti-FIX(a) mAb7 (antibody, V domains shown, part only)
VH: B1 VH
VL: B1 VL with R18E, G51A, S52E, A54L
modifications: constant regions and truncated heavy chain not given
Stimulation Index (FXa generation assay; 851 nM OA antibody) [2]: 8730 fold
